{"source": "patent US20080261892A1", "about": "“Acid Addition Salts of Ac-Phscn-Nh2” (priority 2005, published 2008)", "type_in_all_cases": "physicochemical", "key": {"[1]": {"experiment": "Solution phase stability of free base, methanesulfonic acid salt and nitric acid salt (HPLC), Example 17", "settings": "solution in distilled water, 25±0.5° C.", "protocol": "(§1) All HPLC spectra were taken on a Waters HPLC that included Breeze software, a Waters 2487 Dual λ Absorbance Detector, a Waters 1525 Binary HPLC Pump, and a Waters 717 plus Autosampler. The column was a Phenomenex Synergi 4μ Hydro-RP 80A, 250×4.60 mm 4μ micron. The 40 minute gradient that was used is described in the table below.\nA t=0 h timepoint was taken for each solution. The volumetric flasks were placed in a water bath at 25±0.5° C. and, periodically, a 0.7 mL aliquot was removed and the solution analyzed by HPLC as described in Example 15."}, "[2]": {"experiment": "Solution phase stability of free base and hydrochloride salt (monomer vs dimer by HPLC), Example 15", "settings": "for % dimer / % monomer: solution in distilled water, 25±1° C.", "protocol": "A 1.657 mM solution of Ac—PHSCN—NH2 in distilled water and a 1.653 mM solution of the hydrochloride salt of Ac—PHSCN—NH2 in distilled water were placed in a water bath at 25±1° C. Aliquots (800 μL) were periodically removed and the amount of dimerization was determined by HPLC.\nas §1\nMobile Phase A: 0.1% TFA in acetonitrile Mobile Phase B: 0.1% TFA in water\n(§2) The HPLC peak for Ac-Pro-His-Ser-Cys-Asn-NH2 monomer at approximately 9.2 minutes, and the peak for ATN-161 dimer at approximately 10.0 minutes were integrated in order to determine the percentage of these two species in each sample."}, "[3]": {"experiment": "Solid phase stability of free base, methanesulfonic acid salt and nitric acid salt (HPLC), Example 18", "settings": "solid stored at 25±0.5° C.", "protocol": "as §1"}, "[4]": {"experiment": "Solid phase stability of free base and hydrochloride salt (monomer vs dimer by HPLC), Example 16", "settings": "for % dimer / % monomer: solid stored at 25±1° C.", "protocol": "as §1, §2\nSamples of 0.8-1.2 mg of Ac—PHSCN—NH2 and Ac—PHSCN—NH2 hydrochloride salt were weighed into HPLC sample vials and stored at 25±1° C. A 0 h time point was taken. Samples were periodically removed and diluted with distilled water to give a 1 mg/mL solution. The amount of dimerization was determined by HPLC as described in Example 15. The results are illustrated graphically in FIG. 3."}}, "data": [{"substance": "Ac-Pro-His-Ser-Cys-Asn-NH2 (Ac-PHSCN-NH2) [Free Base]", "values": [{"measurement": "% dimer", "setting": "[1]; 0 h", "result": 7.8, "unit": "%"}, {"measurement": "% monomer", "setting": "[1]; 0 h", "result": 92.2, "unit": "%"}, {"measurement": "% dimer", "setting": "[1]; 69 h", "result": 26.1, "unit": "%"}, {"measurement": "% monomer", "setting": "[1]; 69 h", "result": 73.9, "unit": "%"}, {"measurement": "% dimer", "setting": "[1]; 140 h", "result": 30.7, "unit": "%"}, {"measurement": "% monomer", "setting": "[1]; 140 h", "result": 69.3, "unit": "%"}, {"measurement": "% dimer", "setting": "[1]; 213 h", "result": 35.0, "unit": "%"}, {"measurement": "% monomer", "setting": "[1]; 213 h", "result": 65.0, "unit": "%"}, {"measurement": "% dimer", "setting": "[1]; 332 h", "result": 42.5, "unit": "%"}, {"measurement": "% monomer", "setting": "[1]; 332 h", "result": 57.5, "unit": "%"}, {"measurement": "% dimer", "setting": "[1]; 408 h", "result": 46.4, "unit": "%"}, {"measurement": "% monomer", "setting": "[1]; 408 h", "result": 53.6, "unit": "%"}, {"measurement": "% dimer", "setting": "[1]; 479 h", "result": 51.0, "unit": "%"}, {"measurement": "% monomer", "setting": "[1]; 479 h", "result": 49.0, "unit": "%"}, {"measurement": "% dimer", "setting": "[1]; 549 h", "result": 56.2, "unit": "%"}, {"measurement": "% monomer", "setting": "[1]; 549 h", "result": 43.8, "unit": "%"}, {"measurement": "% dimer", "setting": "[1]; 645 h", "result": 68.9, "unit": "%"}, {"measurement": "% monomer", "setting": "[1]; 645 h", "result": 31.1, "unit": "%"}, {"measurement": "% dimer", "setting": "[1]; 720 h", "result": 82.2, "unit": "%"}, {"measurement": "% monomer", "setting": "[1]; 720 h", "result": 17.8, "unit": "%"}, {"measurement": "% dimer", "setting": "[1]; 836 h", "result": 98.5, "unit": "%"}, {"measurement": "% monomer", "setting": "[1]; 836 h", "result": 1.5, "unit": "%"}, {"measurement": "conversion to other products (e.g., the dimer)", "setting": "[2]; in solution after more than 500 hours at room temperature", "result": "completely converted to other products"}, {"measurement": "% dimer", "setting": "[2]; 0 h", "result": 6.7, "unit": "%"}, {"measurement": "% monomer", "setting": "[2]; 0 h", "result": 93.3, "unit": "%"}, {"measurement": "% dimer", "setting": "[2]; 69 h", "result": 17.4, "unit": "%"}, {"measurement": "% monomer", "setting": "[2]; 69 h", "result": 82.6, "unit": "%"}, {"measurement": "% dimer", "setting": "[2]; 140 h", "result": 23.5, "unit": "%"}, {"measurement": "% monomer", "setting": "[2]; 140 h", "result": 76.5, "unit": "%"}, {"measurement": "% dimer", "setting": "[2]; 188 h", "result": 28.1, "unit": "%"}, {"measurement": "% monomer", "setting": "[2]; 188 h", "result": 71.9, "unit": "%"}, {"measurement": "% dimer", "setting": "[2]; 236 h", "result": 34.3, "unit": "%"}, {"measurement": "% monomer", "setting": "[2]; 236 h", "result": 65.7, "unit": "%"}, {"measurement": "% dimer", "setting": "[2]; 309 h", "result": 38.9, "unit": "%"}, {"measurement": "% monomer", "setting": "[2]; 309 h", "result": 61.1, "unit": "%"}, {"measurement": "% dimer", "setting": "[2]; 357 h", "result": 43.3, "unit": "%"}, {"measurement": "% monomer", "setting": "[2]; 357 h", "result": 56.7, "unit": "%"}, {"measurement": "% dimer", "setting": "[2]; 404 h", "result": 51.4, "unit": "%"}, {"measurement": "% monomer", "setting": "[2]; 404 h", "result": 48.6, "unit": "%"}, {"measurement": "% dimer", "setting": "[2]; 477 h", "result": 68.7, "unit": "%"}, {"measurement": "% monomer", "setting": "[2]; 477 h", "result": 31.3, "unit": "%"}, {"measurement": "% dimer", "setting": "[2]; 525 h", "result": 83.2, "unit": "%"}, {"measurement": "% monomer", "setting": "[2]; 525 h", "result": 16.8, "unit": "%"}, {"measurement": "% dimer", "setting": "[2]; 622 h", "result": 100, "unit": "%"}, {"measurement": "% monomer", "setting": "[2]; 622 h", "result": 0, "unit": "%"}, {"measurement": "% dimer", "setting": "[3]; 0 h", "result": 6.1, "unit": "%"}, {"measurement": "% monomer", "setting": "[3]; 0 h", "result": 93.9, "unit": "%"}, {"measurement": "% dimer", "setting": "[3]; 161 h", "result": 11.6, "unit": "%"}, {"measurement": "% monomer", "setting": "[3]; 161 h", "result": 88.4, "unit": "%"}, {"measurement": "% dimer", "setting": "[3]; 335 h", "result": 12.5, "unit": "%"}, {"measurement": "% monomer", "setting": "[3]; 335 h", "result": 87.5, "unit": "%"}, {"measurement": "% dimer", "setting": "[3]; 498 h", "result": 14.6, "unit": "%"}, {"measurement": "% monomer", "setting": "[3]; 498 h", "result": 85.4, "unit": "%"}, {"measurement": "% dimer", "setting": "[3]; 670 h", "result": 14.8, "unit": "%"}, {"measurement": "% monomer", "setting": "[3]; 670 h", "result": 85.2, "unit": "%"}, {"measurement": "% dimer", "setting": "[3]; 832 h", "result": 15.7, "unit": "%"}, {"measurement": "% monomer", "setting": "[3]; 832 h", "result": 84.3, "unit": "%"}, {"measurement": "% dimer", "setting": "[3]; 1003 h", "result": 17.0, "unit": "%"}, {"measurement": "% monomer", "setting": "[3]; 1003 h", "result": 83.0, "unit": "%"}, {"measurement": "% dimer", "setting": "[3]; 1170 h", "result": 16.5, "unit": "%"}, {"measurement": "% monomer", "setting": "[3]; 1170 h", "result": 83.5, "unit": "%"}, {"measurement": "% dimer", "setting": "[3]; 1363 h", "result": 17.6, "unit": "%"}, {"measurement": "% monomer", "setting": "[3]; 1363 h", "result": 82.4, "unit": "%"}, {"measurement": "% dimer", "setting": "[3]; 1506 h", "result": 18.6, "unit": "%"}, {"measurement": "% monomer", "setting": "[3]; 1506 h", "result": 81.4, "unit": "%"}, {"measurement": "% dimer", "setting": "[3]; 1698 h", "result": 19.2, "unit": "%"}, {"measurement": "% monomer", "setting": "[3]; 1698 h", "result": 80.8, "unit": "%"}, {"measurement": "% pure in the solid phase", "setting": "[4]; solid phase, after more than 800 hours at room temperature, i.e., 23-25° C.", "result": "greater than 82%"}, {"measurement": "% dimer", "setting": "[4]; 0 h", "result": 8.5, "unit": "%"}, {"measurement": "% monomer", "setting": "[4]; 0 h", "result": 91.5, "unit": "%"}, {"measurement": "% dimer", "setting": "[4]; 73 h", "result": 10.0, "unit": "%"}, {"measurement": "% monomer", "setting": "[4]; 73 h", "result": 90.0, "unit": "%"}, {"measurement": "% dimer", "setting": "[4]; 143 h", "result": 11.5, "unit": "%"}, {"measurement": "% monomer", "setting": "[4]; 143 h", "result": 88.5, "unit": "%"}, {"measurement": "% dimer", "setting": "[4]; 243 h", "result": 12.7, "unit": "%"}, {"measurement": "% monomer", "setting": "[4]; 243 h", "result": 87.3, "unit": "%"}, {"measurement": "% dimer", "setting": "[4]; 312 h", "result": 14.0, "unit": "%"}, {"measurement": "% monomer", "setting": "[4]; 312 h", "result": 86.0, "unit": "%"}, {"measurement": "% dimer", "setting": "[4]; 410 h", "result": 13.8, "unit": "%"}, {"measurement": "% monomer", "setting": "[4]; 410 h", "result": 86.2, "unit": "%"}, {"measurement": "% dimer", "setting": "[4]; 576 h", "result": 15.2, "unit": "%"}, {"measurement": "% monomer", "setting": "[4]; 576 h", "result": 84.8, "unit": "%"}, {"measurement": "% dimer", "setting": "[4]; 677 h", "result": 16.1, "unit": "%"}, {"measurement": "% monomer", "setting": "[4]; 677 h", "result": 83.9, "unit": "%"}, {"measurement": "% dimer", "setting": "[4]; 818 h", "result": 17.9, "unit": "%"}, {"measurement": "% monomer", "setting": "[4]; 818 h", "result": 82.1, "unit": "%"}]}]}
